From US20080226722A1, “Gel Composition Comprising Charged Polymers” (priority 2004, published 2008)

Assays:
[1] = Protein release from gels comprising anionically and cationically charged microparticles (release buffer, 37° C., BCA Protein Assay); format: physicochemical; details: for time to reach a release of 50% of protein: HEPES pH 7 isotonised with NaCl, 37° C.
Protocol: To each of the gels prepared according to example 5, 1.5 mL release buffer (HEPES, pH 7, 100 mM, isotonised with NaCl) was added. Subsequently, the cups were incubated at 37° C. Samples of 1.0 mL were taken at various intervals and replaced by 1.0 mL fresh buffer. The protein concentration in the samples was measured […] using the BCA Protein Assay.
Gels loaded with IgG were prepared in analogy to example 5 and tested in analogy to example 6, except that IgG was used as a model protein instead of lysozyme and BSA.

[2] = Incorporation of protein into charged microparticles; format: physicochemical; details: neutral or physiological pH

## IgG
[1]; after about 60 days, gels prepared in analogy to example 5
  protein released: approx. 50%
[1]; gels of oppositely charged microparticles
  release rate compared with the other model proteins: substantially slower

## lysozyme
[2]
  incorporation into negatively charged microparticles: easily incorporated
  incorporation into positively charged microparticles: not very efficiently incorporated
[1]; 12.5%-gel (solid content about 12.5%)
  time to reach a release of 50% of protein: about 20 h
[1]; 25.5%-gel (so in the source)
  time to reach a release of 50% of protein: about 85 h
